Earlier results on two substances are cited in paper PMC7456198.

The target of series [1] is GLP-1 receptor (Homo sapiens) (UniProt P43220).
Series [2] shares this target. The source holds these as a separate data set.

Like-named read-outs stand apart in the source and are kept apart here.

Sequence of UniProt P43220 (P43220 24-463): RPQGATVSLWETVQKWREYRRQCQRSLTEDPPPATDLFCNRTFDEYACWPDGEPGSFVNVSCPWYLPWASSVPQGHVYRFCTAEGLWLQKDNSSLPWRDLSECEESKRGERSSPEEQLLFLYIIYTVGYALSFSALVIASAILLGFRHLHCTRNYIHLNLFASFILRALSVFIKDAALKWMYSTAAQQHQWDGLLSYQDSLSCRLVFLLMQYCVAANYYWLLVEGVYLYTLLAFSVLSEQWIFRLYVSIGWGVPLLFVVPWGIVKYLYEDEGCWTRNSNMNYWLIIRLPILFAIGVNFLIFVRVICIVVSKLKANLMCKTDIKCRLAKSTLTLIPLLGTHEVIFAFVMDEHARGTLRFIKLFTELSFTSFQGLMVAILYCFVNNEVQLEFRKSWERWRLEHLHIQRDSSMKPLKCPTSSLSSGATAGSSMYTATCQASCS

A word on the Kd: it is the concentration at which binding is half-saturated. Turning to Semaglutide (from UniProt P01275), the Kd in series [1] is 0.38 nM.

On to Liraglutide (from UniProt P01275), for which, in series [2], the Kd is 0.11 nM.
